Molecular target: DNA polymerase β (1–335 amino acids), as used in SEC and in the repair assays (UniProt P06746 1-335)
Experiment: cell-based or functional assay

- amount of ligation products after polβ dGTP:C insertion in the coupled assay, absence against presence of the N-terminal region of LIG1, earlier time points (10-60 s): ~20 fold
B1: LIG1▵N-terminal (262–919 amino acids) (domain or fragment)
chain: DPSGYNPAKNNYHPVEDACWKPGQKVPYLAVARTFEKIEEVSARLRMVETLSNLLRSVVALSPPDLLPVLYLSLNHLGPPQQGLELGVGDGVLLKAVAQATGRQLESVRAEAAEKGDVGLVAENSRSTQRLMLPPPPLTASGVFSKFRDIARLTGSASTAKKIDIIKGLFVACRHSEARFIARSLSGRLRLGLAEQSVLAALSQAVSLTPPGQEFPPAMVDAGKGKTAEARKTWLEEQGMILKQTFCEVPDLDRIIPVLLEHGLERLPEHCKLSPGIPLKPMLAHPTRGISEVLKRFEEAAFTCEYKYDGQRAQIHALEGGEVKIFSRNQEDNTGKYPDIISRIPKIKLPSVTSFILDTEAVAWDREKKQIQPFQVLTTRKRKEVDASEIQVQVCLYAFDLIYLNGESLVREPLSRRRQLLRENFVETEGEFVFATSLDTKDIEQIAEFLEQSVKDSCEGLMVKTLDVDATYEIAKRSHNWLKLKKDYLDGVGDTLDLVVIGAYLGRGKRAGRYGGFLLASYDEDSEELQAICKLGTGFSDEELEEHHQSLKALVLPSPRPYVRIDGAVIPDHWLDPSAVWEVKCADLSLSPIYPAARGLVDSDKGISLRFPRFIRVREDKQPEQATTSAQVACLYRKQSQIQNQQGEDSGSDPEDTY

Source: publication PMC11176775, “Impact of DNA ligase 1 and IIIα interactions with APE1 and polβ on the efficiency of base excision repair pathway at the downstream steps” (The Journal of Biological Chemistry, 2024)
